Test: yeast display, Sf9 membrane polyspecificity reagent, FACS + sequencing; frameworks hold sequencing errors
Summary of the method: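 Synthetic nanobody libraries on Saccharomyces cerevisiae BJ5465 were galactose-induced for 36–48 hours, stained 1 hour at 4 °C with 10% biotinylated, detergent-solubilized Sf9 membrane reagent and enriched on streptavidin microbeads. FACS then separated cells into low and high (top ~1%) gates by anti-HA (expression) and streptavidin (reagent binding) fluorescence. Genes were colony-PCR amplified, MiSeq 2 × 250 sequenced and CDR-length filtered. A clone's polyreactivity label is that of its gate of origin.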

Sequence: QVQLVESGGGLVQAGGSLRLSCAASGSIFYPYGMGWYRQAPGKEREFVAAISWSGGTTYYADSVKGRFTISRDNAKNTVYLQMNSLKKEDTGVYYCAAVSFYGVGGTWYNYWGKGTQVTVSS
- polyreactivity (PSR sort gate): high polyreactivity

Sequence: QVQLVESGGGLVQAGGSLRLSCAASGSIFYPYVMGRYRQAPGKEREFVAAITTSGGTTYYADSVKGRFTISLDNAKNTVYLKMNSLKPEDTAVYDCAARGTVPGWAIYDYWGQGTEVTVSS
- polyreactivity (PSR sort gate): low polyreactivity

Sequence: QVQLVESGGGLVQAGGSLRLSCAASGSIFYPYVMGWYRQAPGKERELVAAITTSVGSTYYADSVKGRFTISRDNAKNTVYLQMNSLKPEDTAVYYCAAKYFGSRRPGRYNYWGQGTQVTVSS
- polyreactivity (PSR sort gate): high polyreactivity

Sequence: QVQLVESGGGLVQAGGSLRLSCAASGSIFYQNAMGWYRQAPGKERELVAAITSDGSTYYADSVKGRFTISRDNAKNTVYLQMNSLKPEDTAVYYCAAEYYGHRYDYWGQGTQVTVSS
- polyreactivity (PSR sort gate): low polyreactivity

Sequence: QVQLVESGGGLVQAGGSLRLSCAASGSIFYRNAMGWYRQAPGKERELDAAIDSGDSTNYADSVKGRFTISRDNAKNTVYLQMNSLKPEDTAVYYCAARVIYYYGSGPYDYWGQGTQVTVSS
- polyreactivity (PSR sort gate): low polyreactivity

Sequence: QVQLVESGGGLVQAGGSLRLSCAASGSIFYRNAMGWYRQAPGKERELVAAISGRGGSTNYADSVKGRFTISRDNAKNTVYLQMNSLKPEDTAVYYCNRYGVSNILVRGGYWGQGTQVTVSS
- polyreactivity (PSR sort gate): high polyreactivity

Sequence: QVQLVESGGGLVQAGGSLRLSCAASGSIFYRNAMGWYRQAPGKERELVAAISWSGASTYYADSVKGRFTISRDNAKNTVFLQLNSLKPEDTAVYYCATDDFWNVKFYAYYPEFDYWGQGTQVTVSS
- polyreactivity (PSR sort gate): low polyreactivity

Sequence: QVQLVESGGGLVQAGGSLRLSCAASGSIFYRNAMGWYRQAPGKERELVAGITTRGGSTYYADSVKGRFTISRDNAKNTVYLQMNSLKPEDTAVYYCNKYYYYRDSGYWGQGTQVTVSS
- polyreactivity (PSR sort gate): high polyreactivity

Sequence: QVQLVESGGGLVQAGGSLRLSCAASGSIFYRNAMGWYRQAPGKERELVASISASGGRTYYADSVKGRLTISRDNAKNTVYFQMYSLNREETAFYYCNKVSPVAYWYSWGINFDFWGQGTQVTVSS
- polyreactivity (PSR sort gate): high polyreactivity

Sequence: QVQLVESGGGLVQAGGSLRLSCAASGSIFYRNAMGWYRQAPGKERELVASISSSAGRTYYADSVKGRFTISRDNAKNTVYLQMNSLKPEDTAVYYCAVTSYRQRGAFDYWGQGTQVTVSS
- polyreactivity (PSR sort gate): high polyreactivity

Sequence: QVQLVESGGGLVQAGGSLRLSCAASGSIFYRNAMGWYRQAPGKERELVASITSGGRTNYADSVKGRFTISRDNAKNTVYLQMNSLKPEDTAVYYCARGRASYTKSGPTPYTGYGYWGQGTQVTVSS
- polyreactivity (PSR sort gate): low polyreactivity

Sequence: QVQLVESGGGLVQAGGSLRLSCAASGSIFYRNVMGWYRQAPGKERELVAAISWSGGSTYYADSVKGRFTISRDNAKNTVYLQMNSLKPEDTAVYYCAADIPKTGYPYAFEYWGQGTQVTVSS
- polyreactivity (PSR sort gate): low polyreactivity

Sequence: QVQLVESGGGLVQAGGSLRLSCAASGSIFYRNVMGWYRQAPGKERELVAAITGSGGITYYADSVKGRFTISRDNAKNTVYLQMNSLKPEDTAVYYCNKTSFLVKLDYWGQGTQVTVSS
- polyreactivity (PSR sort gate): low polyreactivity

Sequence: QVQLVESGGGLVQAGGSLRLSCAASGSIFYRYAMGWYRQAPGKERELVAAIRSRTGRTYYADSVKGRFTITRDNAKNTVYLQMNSLKQEDTAVYYCAADKYFSARFDYWGQGTQVTVSS
- polyreactivity (PSR sort gate): high polyreactivity

Sequence: QVQLVESGGGLVQAGGSLRLSCAASGSIFYRYAMGWYRQAPGKERELVAAISSNGVSTYYADSVKGRFTISRDNAKNTVYLQMNSLKPEDTAVYCCARDVYASPRLYTSRYNYWGQGTQVTVSS
- polyreactivity (PSR sort gate): low polyreactivity

Sequence: QVQLVESGGGLVQAGGSLRLSCAASGSIFYRYAMGWYRQAPGKERELVAAISSNGVSTYYADSVKGRFTISRDNAKNTVYLQMTSLNPEDTAVYYCARDVYASPRLYTSRYNYWGQGTQVTVSS
- polyreactivity (PSR sort gate): low polyreactivity

Sequence: QVQLVESGGGLVQAGGSLRLSCAASGSIFYRYAMGWYRQAPGKERELVSSISSGVSTNYADYVKGRFTISRDNAKNTVYLQINSLKREDTAVYYWAAYYRGWSSSYWFPAYNYWGQGTQVTVSS
- polyreactivity (PSR sort gate): low polyreactivity

Sequence: QVQLVESGGGLVQAGGSLRLSCAASGSIFYRYVMGWYRQAPGKERELVAAITSTGSTYYADSVKGRFTISRDNAKNTVYLQMNSLKPEDTAVYYCNTLYARPLRDSYGYWGQGTQVTVSS
- polyreactivity (PSR sort gate): high polyreactivity

Sequence: QVQLVESGGGLVQAGGSLRLSCAASGSIFYRYVMGWYRQAPGKERELVAVITGSGGNTYYADSVKGRFTISRDNAKNTVYLQMNSLKPEDTAVYYCAARYYTSQYGRHSRYPSEYWGQGTQVTVSS
- polyreactivity (PSR sort gate): high polyreactivity

Sequence: QVQLVESGGGLVQAGGSLRLSCAASGSIFYSNAMGWYRQAPGKERELVAAISFTGGTTYYADSVKGRFTISRDNAKNTVYLQMNSLKPEDTAVYYCNKLYHHYYGYWGQGTQVTVSS
- polyreactivity (PSR sort gate): high polyreactivity

Sequence: QVQLVESGGGLVQAGGSLRLSCAASGSIFYSNAMGWYRQAPGKERELVADISWSDGSTYYADSVKGRFTISRDNAKNNVYLQMNSLKPEDTAVYYCARKAGYSYFRRYDYWGQGTQVTVSS
- polyreactivity (PSR sort gate): low polyreactivity

Sequence: QVQLVESGGGLVQAGGSLRLSCAASGSIFYSNAMGWYRQAPGKERELVATIRSGGTTYYADSVKGRFTISRDNAKNTVYLQMNSLKPEDTAVYYCANRYGVKYWGQGTQVTVSS
- polyreactivity (PSR sort gate): high polyreactivity

Sequence: QVQLVESGGGLVQAGGSLRLSCAASGSIFYSNMGWYRPAPGKEREFVAAISGSGVRTYYADSVKGRFTISRDNAKKTVYLQMNSLKPEDTAVYYCNAGRRQDNRYNYWGQGTQVTVSS
- polyreactivity (PSR sort gate): high polyreactivity

Sequence: QVQLVESGGGLVQAGGSLRLSCAASGSIFYSNMGWYRQAPGKEREFFAAISGSGVRTYYADSVKGRFTISRDNAKNTVYLQMNSLKPEDTAVYYCNAGRRQDFRYNYWGHGTQVTVSS
- polyreactivity (PSR sort gate): high polyreactivity

Sequence: QVQLVESGGGLVQAGGSLRLSCAASGSIFYSNVMGWYRQAPGKESELVAAITRGGGTNYADSVKGRFTISRDNAKNTVYLQMNSLKPEDTAVYYCNRDPQKYRWIPRFDYWGQGTQVTVSS
- polyreactivity (PSR sort gate): low polyreactivity

Sequence: QVQLVESGGGLVQAGGSLRLSCAASGSIFYSYAMGWDRQAPGKERELVAAISRIGGTTYYADSVKGRFTISRDNAKNTVYLQMNSLKPEDTAVYYCAAGPLLPRYSQYGYWGQGTQVTVSS
- polyreactivity (PSR sort gate): low polyreactivity

Sequence: QVQLVESGGGLVQAGGSLRLSCAASGSIFYSYAMGWYRQAPGKERELVAAISSGGRTKYADSVKGRFTISRDNAKNTVYLQMNSLKPEDTAVYYCAASDRYGGRDYWGQGTQVTVSS
- polyreactivity (PSR sort gate): high polyreactivity

Sequence: QVQLVESGGGLVQAGGSLRLSCAASGSIFYSYAMGWYRQAPGKERELVAAISWDASTYYADSVKGRFTISRDNAKNTVYLQMNSLKPEDTAVSYCNADIPYYFVYDAYDYWGQGTQVTVSS
- polyreactivity (PSR sort gate): low polyreactivity

Sequence: QVQLVESGGGLVQAGGSLRLSCAASGSIFYSYAMGWYRQAPGKERELVAAISYRGGSTYYADSVKGRFTISRDNAKNTVYLQMNSLKPEDTAVYYCAADARQSRYNYWGQGTQVTVSS
- polyreactivity (PSR sort gate): high polyreactivity

Sequence: QVQLVESGGGLVQAGGSLRLSCAASGSIFYSYAMGWYRQAPGKERELVADITWYGGRTYYADSVKGRFTISRDNAKNTVYLQMNSLKPEDTAVYYCAADVYLYDYWGQGTQVTISS
- polyreactivity (PSR sort gate): high polyreactivity

Sequence: QVQLVESGGGLVQAGGSLRLSCAASGSIFYSYAMGWYRQAPGKERELVASISDGSSTYADSVKGRFTISRDNAKNTVYLQMNSLKPEDTAVYYCNADATDSYPEKDEHDSWGQGTQVTVSS
- polyreactivity (PSR sort gate): low polyreactivity

Sequence: QVQLVESGGGLVQAGGSLRLSCAASGSIFYSYAMGWYRQAPGKERELVATITRRGGSTYYADSVKGRFTISRDNAKNTVYLQMNSLKPEDTAVYYCAVKPVRYAYRIYDLRFEYWGQGTQVTVSS
- polyreactivity (PSR sort gate): high polyreactivity

Sequence: QVQLVESGGGLVQAGGSLRLSCAASGSIFYSYDMGWYRQAPGKERELVAAIDWSGGSTYYADSVKGRFTISRDNAKNTVYLQMNSLKPEDTAVYYCAADDQVEGDYWGQGTQVTVSS
- polyreactivity (PSR sort gate): high polyreactivity

Sequence: QVQLVESGGGLVQAGGSLRLSCAASGSIFYTNAMGWYRQAPGKERELVAAIRWSGGRTYYADSVKGRFTISRDNAKNTVFLQMNSLKPEDTAVYYCNVVVRYQSAYDYWGQGTQVTVSS
- polyreactivity (PSR sort gate): high polyreactivity

Sequence: QVQLVESGGGLVQAGGSLRLSCAASGSIFYTNAMGWYRQAPGKERELVAAIRYSGVSTYYADSVKGRFTISRDNAKNTVYLQMNSLKPEDSAVYSCAARGHPFKKSYGSWGQGTQVTVSS
- polyreactivity (PSR sort gate): high polyreactivity

Sequence: QVQLVESGGGLVQAGGSLRLSCAASGSIFYTNAMGWYRQAPGKERELVAAITGGGRTNYADSLKGRFTISRDNAKNTVYLQMNSLKPEDNAVYYCAARTGYRYYTGDYWGQGTQVTVSS
- polyreactivity (PSR sort gate): high polyreactivity

Sequence: QVQLVESGGGLVQAGGSLRLSCAASGSIFYTNAMGWYRQAPGKEREMVATITSSTGSTNYADSVKGRFTISRDNAKITVYLQMNSLKPEDTAVYYCAKRDGYWVYYQMDYWGQGTQVTVSS
- polyreactivity (PSR sort gate): low polyreactivity

Sequence: QVQLVESGGGLVQAGGSLRLSCAASGSIFYTYAMGWYRQAPGKERELVAAISRSGGSTYYADSVKGRFTISRDNAKNTVYLQMNSLKPEDTAVYYCAARPPYRVGIVPLGRREYYWGQGTQVTVSS
- polyreactivity (PSR sort gate): high polyreactivity

Sequence: QVQLVESGGGLVQAGGSLRLSCAASGSIFYTYAMGWYRQAPGKERELVARIDYSTGNTYYADSVKGRFTISRDNAKNTVYLQMNSLKPEDTAVYYCAARDWSSFTGAYDYWGQGTQVTVSS
- polyreactivity (PSR sort gate): high polyreactivity

Sequence: QVQLVESGGGLVQAGGSLRLSCAASGSIFYTYAMGWYRQAPGKERELVAVISYGGGRTYYADSVKGRFTISRDNAKNTVYLQMNSLKPEDTAVYYCAASYSFYAFSVPYYYWGQGSQVTVSS
- polyreactivity (PSR sort gate): high polyreactivity

Sequence: QVQLVESGGGLVQAGGSLRLSCAASGSIFYTYVMGWYRPAPGKERELVAAISASGVRTYYADSVKGRFTISRDNAKYTFYLQMNSLKPEYTAVYFCAADRQRADYYWGQGTQVTVSS
- polyreactivity (PSR sort gate): high polyreactivity

Sequence: QVQLVESGGGLVQAGGSLRLSCAASGSIFYTYVMGWYRPAPGKERELVAVISWSSTSTYYADSVKGRFTISRDNAKKTVYLQMNSLKPEDTAVYYCAAGVHRYRPGHGYDDGGYYWGQGTQVTVSS
- polyreactivity (PSR sort gate): low polyreactivity

Sequence: QVQLVESGGGLVQAGGSLRLSCAASGSIFYTYVMGWYRQAPGKERELVAAITWSGGSTYYADSVKGRFTISRDNAKNTVYLQMNSLKPEDTAVYYCAAVRGYRSSKYDYWGQGTQVTVSS
- polyreactivity (PSR sort gate): high polyreactivity

Reference: the nanobody polyreactivity screen of Harvey et al. (2022)
